Measured values taken from patent publication US20230395193A1 (priority 2020, published 2023).

B1: M-Q9BQT8 (protein, UniProt Q9BQT8 1-299, looked up)
Mitochondrial …: MSAKPEVSLVREASRQIVAGGSAGLVEICLMHPLDVVKTRFQIQRCATDPNSYKSLVDSFRMIFQMEGLFGFYKGILPPILAETPKRAVKFFTFEQYKKLLGYVSLSPALTFAIAGLGSGLTEAIVVNPFEVVKVGLQANRNTFAEQPSTVGYARQIIKKEGWGLQGLNKGLTATLGRHGVFNMVYFGFYYNVKNMIPVNKDPILEFWRKFGIGLLSGTIASVINIPFDVAKSRIQGPQPVPGEIKYRTCFKTMATVYQEEGILALYKGLLPKIMRLGPGGAVMLLVYEYTYSWLQENW
modifications: interaction partner of viral M protein
B2: M-Q9UBU6 (protein, UniProt Q9UBU6 1-413, looked up)
Protein FAM8A1: MAEGPEEARGHPPGQDDGGGDHEPVPSLRGPPTTAVPCPRDDPQAEPQAPGRPTAPGLAAAAAADKLEPPRELRKRGEAASGSGAELQEQAGCEAPEAAAPRERPARLSAREYSRQVHEWLWQSYCGYLTWHSGLAAFPAYCSPQPSPQSFPSGGAAVPQAAAPPPPQLGYYNPFYFLSPGAAGPDPRTAAGISTPAPVAGLGPRAPHVQASVRATPVTRVGSAAPSRSPSETGRQAGREYVIPSLAHRFMAEMVDFFILFFIKATIVLSIMHLSGIKDISKFAMHYIIEEIDEDTSMEDLQKMMVVALIYRLLVCFYEIICIWGAGGATPGKFLLGLRVVTCDTSVLIAPSRVLVIPSSNVSITTSTIRALIKNFSIASFFPAFITLLFFQHNRTAYDIVAGTIVVKRNGVR
modifications: interaction partner of viral M protein
B3: M-Q9BV40 (protein, UniProt Q9BV40 1-100, looked up)
Vesicle-associated membrane …: MEEASEGGGNDRVRNLQSEVEGVKNIMTQNVERILARGENLEHLRNKTEDLEATSEHFKTTSQKVARKFWWKNVKMIVLICVIVFIIILFIVLFATGAFS
modifications: host interactor of M
B4: M-Q9BQ95 (protein, UniProt Q9BQ95 49-431, looked up)
Evolutionarily conserved …: SSEQSLVPSPPEPRQRPTKALVPFEDLFGQAPGGERDKASFLQTVQKFAEHSVRKRGHIDFIYLALRKMREYGVERDLAVYNQLLNIFPKEVFRPRNIIQRIFVHYPRQQECGIAVLEQMENHGVMPNKETEFLLIQIFGRKSYPMLKLVRLKLWFPRFMNVNPFPVPRDLPQDPVELAMFGLRHMEPDLSARVTIYQVPLPKDSTGAADPPQPHIVGIQSPDQQAALARHNPARPVFVEGPFSLWLRNKCVYYHILRADLLPPEEREVEETPEEWNLYYPMQLDLEYVRSGWDNYEFDINEVEEGPVFAMCMAGAHDQATMAKWIQGLQETNPTLAQIPVVFRLAGSTRELQTSSAGLEEPPLPEDHQEEDDNLQRQQQGQS
B5: M-Q9NVI1 (protein, UniProt Q9NVI1 1-1328, looked up)
Fanconi anemia group I protein: MDQKILSLAAEKTADKLQEFLQTLREGDLTNLLQNQAVKGKVAGALLRAIFKGSPCSEEAGTLRRRKIYTCCIQLVESGDLQKEIASEIIGLLMLEAHHFPGPLLVELANEFISAVREGSLVNGKSLELLPIILTALATKKENLAYGKGVLSGEECKKQLINTLCSGRWDQQYVIQLTSMFKDVPLTAEEVEFVVEKALSMFSKMNLQEIPPLVYQLLVLSSKGSRKSVLEGIIAFFSALDKQHNEEQSGDELLDVVTVPSGELRHVEGTIILHIVFAIKLDYELGRELVKHLKVGQQGDSNNNLSPFSIALLLSVTRIQRFQDQVLDLLKTSVVKSFKDLQLLQGSKFLQNLVPHRSYVSTMILEVVKNSVHSWDHVTQGLVELGFILMDSYGPKKVLDGKTIETSPSLSRMPNQHACKLGANILLETFKIHEMIRQEILEQVLNRVVTRASSPISHFLDLLSNIVMYAPLVLQSCSSKVTEAFDYLSFLPLQTVQRLLKAVQPLLKVSMSMRDCLILVLRKAMFANQLDARKSAVAGFLLLLKNFKVLGSLSSSQCSQSLSVSQVHVDVHSHYNSVANETFCLEIMDSLRRCLSQQADVRLMLYEGFYDVLRRNSQLANSVMQTLLSQLKQFYEPKPDLLPPLKLEACILTQGDKISLQEPLDYLLCCIQHCLAWYKNTVIPLQQGEEEEEEEEAFYEDLDDILESITNRMIKSELEDFELDKSADFSQSTSIGIKNNICAFLVMGVCEVLIEYNFSISSFSKNRFEDILSLFMCYKKLSDILNEKAGKAKTKMANKTSDSLLSMKFVSSLLTALFRDSIQSHQESLSVLRSSNEFMRYAVNVALQKVQQLKETGHVSGPDGQNPEKIFQNLCDITRVLLWRYTSIPTSVEESGKKEKGKSISLLCLEGLQKIFSAVQQFYQPKIQQFLRALDVTDKEGEEREDADVSVTQRTAFQIRQFQRSLLNLLSSQEEDFNSKEALLLVTVLTSLSKLLEPSSPQFVQMLSWTSKICKENSREDALFCKSLMNLLFSLHVSYKSPVILLRDLSQDIHGHLGDIDQDVEVEKTNHFAIVNLRTAAPTVCLLVLSQAEKVLEEVDWLITKLKGQVSQETLSEEASSQATLPNQPVEKAIIMQLGTLLTFFHELVQTALPSGSCVDTLLKDLCKMYTTLTALVRYYLQVCQSSGGIPKNMEKLVKLSGSHLTPLCYSFISYVQNKSKSLNYTGEKKEKPAAVATAMARVLRETKPIPNLIFAIEQYEKFLIHLSKKSKVNLMQHMKLSTSRDFKIKGNILDMVLREDGEDENEEGTASEHGGQNKEPAKKKRKK
modifications: interactor of viral M protein
B6: M-Q9BYC5 (protein, UniProt Q9BYC5 1-575, looked up)
Alpha-(1,6)-fucosyltransferase: MRPWTGSWRWIMLILFAWGTLLFYIGGHLVRDNDHPDHSSRELSKILAKLERLKQQNEDLRRMAESLRIPEGPIDQGPAIGRVRVLEEQLVKAKEQIENYKKQTRNGLGKDHEILRRRIENGAKELWFFLQSELKKLKNLEGNELQRHADEFLLDLGHHERSIMTDLYYLSQTDGAGDWREKEAKDLTELVQRRITYLQNPKDCSKAKKLVCNINKGCGYGCQLHHVVYCFMIAYGTQRTLILESQNWRYATGGWETVFRPVSETCTDRSGISTGHWSGEVKDKNVQVVELPIVDSLHPRPPYLPLAVPEDLADRLVRVHGDPAVWWVSQFVKYLIRPQPWLEKEIEEATKKLGFKHPVIGVHVRRTDKVGTEAAFHPIEEYMVHVEEHFQLLARRMQVDKKRVYLATDDPSLLKEAKTKYPNYEFISDNSISWSAGLHNRYTENSLRGVILDIHFLSQADFLVCTFSSQVCRVAYEIMQTLHPDASANFHSLDDIYYFGGQNAHNQIAIYAHQPRTADEIPMEPGDIIGVAGNHWDGYSKGVNRKLGRTGLYPSYKVREKIETVKYPTYPEAEK
modifications: interaction partner of SARS-CoV-2 M
B7: M-Q9NQC3 (protein, UniProt Q9NQC3 1-1192, looked up)
Reticulon-4: MEDLDQSPLVSSSDSPPRPQPAFKYQFVREPEDEEEEEEEEEEDEDEDLEELEVLERKPAAGLSAAPVPTAPAAGAPLMDFGNDFVPPAPRGPLPAAPPVAPERQPSWDPSPVSSTVPAPSPLSAAAVSPSKLPEDDEPPARPPPPPPASVSPQAEPVWTPPAPAPAAPPSTPAAPKRRGSSGSVDETLFALPAASEPVIRSSAENMDLKEQPGNTISAGQEDFPSVLLETAASLPSLSPLSAASFKEHEYLGNLSTVLPTEGTLQENVSEASKEVSEKAKTLLIDRDLTEFSELEYSEMGSSFSVSPKAESAVIVANPREEIIVKNKDEEEKLVSNNILHNQQELPTALTKLVKEDEVVSSEKAKDSFNEKRVAVEAPMREEYADFKPFERVWEVKDSKEDSDMLAAGGKIESNLESKVDKKCFADSLEQTNHEKDSESSNDDTSFPSTPEGIKDRSGAYITCAPFNPAATESIATNIFPLLGDPTSENKTDEKKIEEKKAQIVTEKNTSTKTSNPFLVAAQDSETDYVTTDNLTKVTEEVVANMPEGLTPDLVQEACESELNEVTGTKIAYETKMDLVQTSEVMQESLYPAAQLCPSFEESEATPSPVLPDIVMEAPLNSAVPSAGASVIQPSSSPLEASSVNYESIKHEPENPPPYEEAMSVSLKKVSGIKEEIKEPENINAALQETEAPYISIACDLIKETKLSAEPAPDFSDYSEMAKVEQPVPDHSELVEDSSPDSEPVDLFSDDSIPDVPQKQDETVMLVKESLTETSFESMIEYENKEKLSALPPEGGKPYLESFKLSLDNTKDTLLPDEVSTLSKKEKIPLQMEELSTAVYSNDDLFISKEAQIRETETFSDSSPIEIIDEFPTLISSKTDSFSKLAREYTDLEVSHKSEIANAPDGAGSLPCTELPHDLSLKNIQPKVEEKISFSDDFSKNGSATSKVLLLPPDVSALATQAEIESIVKPKVLVKEAEKKLPSDTEKEDRSPSAIFSAELSKTSVVDLLYWRDIKKTGVVFGASLFLLLSLTVFSIVSVTAYIALALLSVTISFRIYKGVIQAIQKSDEGHPFRAYLESEVAISEELVQKYSNSALGHVNCTIKELRRLFLVDDLVDSLKFAVLMWVFTYVGALFNGLTLLILALISLFSVPVIYERHQAQIDHYLGLANKNVKDAMAKIQAKIPGLKRKAE

Each molecule was assayed on SARS-CoV-1, MERS-CoV and SARS-CoV-2 proteins in HEK293T cells.
Set-up: species or system human
For B1, the MIST_MERS was 0.4327, the MIST_SARS1 was 0.6946 and the MIST_SARS2 was 0.8808. The Saint_MERS was 0, the Saint_SARS1 was 0.65 and the Saint_SARS2 was 0.65. In the case of B2, the MIST_MERS is reported as 0, the MIST_SARS1 is reported as 0.88 and the MIST_SARS2 is reported as 0.8045. It also gave a Saint_MERS of 0, a Saint_SARS1 of 0.63 and a Saint_SARS2 of 0.97. With B3 the MIST_MERS was 0.9874, the MIST_SARS1 was 0 and the MIST_SARS2 was 0. It also gave a Saint_MERS of 1, a Saint_SARS1 of 0 and a Saint_SARS2 of 0. With B4 the MIST_MERS was 0, the MIST_SARS1 was 0.9893 and the MIST_SARS2 was 0. The Saint_MERS was 0, the Saint_SARS1 was 0.97 and the Saint_SARS2 was 0. With B5 the MIST_MERS was 0.8133, the MIST_SARS1 was 0.7245 and the MIST_SARS2 was 0.5573. For the same molecule, the Saint_MERS was 1, the Saint_SARS1 was 1 and the Saint_SARS2 was 1. For B6, the MIST_MERS was 0.963, the MIST_SARS1 was 0 and the MIST_SARS2 was 0. The Saint_MERS was 0.98, the Saint_SARS1 was 0 and the Saint_SARS2 was 0. Molecule B7 has an MIST_MERS of 0, an MIST_SARS1 of 0.4448 and an MIST_SARS2 of 0.8738. It also gave a Saint_MERS of 0, a Saint_SARS1 of 1 and a Saint_SARS2 of 1.
